Experiments:
α2δ-1-Cav2.2 interaction = molecular target: T1, α2δ-1-Cav2.2 interaction (Rattus norvegicus, UniProt P54290+Q02294); test: Co-IP of α2δ-1 and Cav2.2 in spinal cord after intrathecal injection; format: in vivo; settings: SNL and sham rats, intrathecal 1 μg, 60 min
T1 construct: from tissue; host or cells: rat dorsal spinal cord (L5-L6) membrane extracts after intrathecal injection
Method: Whole-cell IBa was elicited by a depolarizing pulse to 0 mV for 200 ms from a holding potential of −90 mV. […] Data are means±s.e.m. The numbers of cells recorded in each group are indicated in parentheses (cells from 4 separate experiments). […] The dorsal spinal cord at the L5 and L6 level was removed 60 min after intrathecal injection of α2δ-1Tat peptide (1 μg) or control peptide (1 μg). Membrane proteins were immunoprecipitated first with a rabbit anti-α2δ-1 or anti-IgG antibody. Western immunoblotting was performed by using an anti-Cav2.2 antibody. S, sham; L, SNL; C, control peptide; P, α2δ-1Tat peptide. Data are means±s.e.m.
Coimmunoprecipitation using spinal cord tissue membrane extracts: The dorsal quadrants of rat spinal cords at the L5 and L6 levels or the frozen lumbar spinal cord tissues from four human donors (2 males and 2 females, age ranged 18-42 years, post-mortem interval of 17-29 h; supplied by University of Maryland Brain and Tissue Bank) were dissected and homogenized in ice-cold hypotonic buffer (20 mM Tris [pH 7.4], 1 mM CaCl2, 1 mM MgCl2, and protease inhibitors) for membrane preparation. The nuclei and unbroken cells were removed by centrifugation at 300×g for 5 min. The supernatant was centrifuged for 20 min at 21,000×g. […]

α2δ-1-Cav2.2 association = molecular target: T2, α2δ-1-Cav2.2 association (Mus musculus, UniProt O08532+O55017); test: Co-IP of α2δ-1 and Cav2.2 in mouse brain slices subjected to OGD; format: cell-based; settings: 1 μM for 30 min
T2 construct: from tissue; host or cells: mouse brain slices subjected to OGD, membrane extracts
Method: FIGS. 22A-22D: α2δ-1-bound NMDARs contribute to brain injury and neurological deficit caused by MCAO in the brain. (A) Upper: Original gel images of coimmunoprecipitation (co-IP) analysis show the interaction between α2δ-1 and GluN1 in two samples from mouse brain tissues; Lower: Effect of α2δ-1Tat peptide (1 μM for 60 min) on the α2δ-1-GluN1 protein complex in mouse brain tissues (n=6 mice per group). (B) Representative gel images and quantification of co-IP analysis show the effect of OGD on the α2δ-1-GluN1 or α2δ-1-Cav2.2 association in mouse brain tissues (n=6 mice per group). IgG and input were used as negative and positive controls, respectively. (C) Original gel images and quantification of co-IP analysis show the effect of α2δ-1Tat peptide (P) and control peptide (C; both 1 μM for 30 min) on the α2δ-1-GluN1 or α2δ-1-Cav2.2 association in mouse brain slices subjected to OGD (O, n=6 mice per group). (D) Neurological severity scores (left) and representative TTC staining and quantification (right) of brain infarct volume in MCAO mice treated with α2δ-1Tat peptide or control peptide (both 200 μg/kg, i.p.) at 15 min before MCAO and immediately before reperfusion (n=8 mice per group). Data are shown as means±SEM. *p<0.05, **p<0.01 compared with the control peptide- or vehicle-treated group (paired Student's t-test for panels B-D and F; Mann-Whitney test for panel E). […]

T1 sequence (P54290 25-944 limits assumed): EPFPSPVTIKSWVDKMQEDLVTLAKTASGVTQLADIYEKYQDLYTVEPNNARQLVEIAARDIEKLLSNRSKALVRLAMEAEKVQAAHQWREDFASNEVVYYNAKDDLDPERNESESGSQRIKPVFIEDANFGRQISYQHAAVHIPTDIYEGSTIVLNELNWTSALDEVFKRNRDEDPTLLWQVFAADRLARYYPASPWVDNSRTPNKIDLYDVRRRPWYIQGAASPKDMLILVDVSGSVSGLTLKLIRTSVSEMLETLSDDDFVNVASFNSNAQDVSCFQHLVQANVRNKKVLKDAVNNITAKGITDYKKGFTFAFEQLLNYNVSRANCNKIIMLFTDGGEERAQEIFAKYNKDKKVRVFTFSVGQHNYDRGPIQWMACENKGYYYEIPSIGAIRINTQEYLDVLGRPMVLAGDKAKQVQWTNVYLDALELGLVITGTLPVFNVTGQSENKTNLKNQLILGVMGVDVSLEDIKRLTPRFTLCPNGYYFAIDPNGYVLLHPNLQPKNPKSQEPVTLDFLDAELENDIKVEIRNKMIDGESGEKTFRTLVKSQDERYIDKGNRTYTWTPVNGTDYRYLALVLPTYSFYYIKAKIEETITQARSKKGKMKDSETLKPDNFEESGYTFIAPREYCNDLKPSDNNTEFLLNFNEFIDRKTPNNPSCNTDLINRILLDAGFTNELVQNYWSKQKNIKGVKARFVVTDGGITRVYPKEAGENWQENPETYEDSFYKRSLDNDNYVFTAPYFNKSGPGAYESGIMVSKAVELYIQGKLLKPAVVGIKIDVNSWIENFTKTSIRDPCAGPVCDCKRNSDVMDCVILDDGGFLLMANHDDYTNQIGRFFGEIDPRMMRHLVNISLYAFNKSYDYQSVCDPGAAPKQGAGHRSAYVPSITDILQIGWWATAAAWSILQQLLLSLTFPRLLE
T1 sequence (Q02294 whole entry): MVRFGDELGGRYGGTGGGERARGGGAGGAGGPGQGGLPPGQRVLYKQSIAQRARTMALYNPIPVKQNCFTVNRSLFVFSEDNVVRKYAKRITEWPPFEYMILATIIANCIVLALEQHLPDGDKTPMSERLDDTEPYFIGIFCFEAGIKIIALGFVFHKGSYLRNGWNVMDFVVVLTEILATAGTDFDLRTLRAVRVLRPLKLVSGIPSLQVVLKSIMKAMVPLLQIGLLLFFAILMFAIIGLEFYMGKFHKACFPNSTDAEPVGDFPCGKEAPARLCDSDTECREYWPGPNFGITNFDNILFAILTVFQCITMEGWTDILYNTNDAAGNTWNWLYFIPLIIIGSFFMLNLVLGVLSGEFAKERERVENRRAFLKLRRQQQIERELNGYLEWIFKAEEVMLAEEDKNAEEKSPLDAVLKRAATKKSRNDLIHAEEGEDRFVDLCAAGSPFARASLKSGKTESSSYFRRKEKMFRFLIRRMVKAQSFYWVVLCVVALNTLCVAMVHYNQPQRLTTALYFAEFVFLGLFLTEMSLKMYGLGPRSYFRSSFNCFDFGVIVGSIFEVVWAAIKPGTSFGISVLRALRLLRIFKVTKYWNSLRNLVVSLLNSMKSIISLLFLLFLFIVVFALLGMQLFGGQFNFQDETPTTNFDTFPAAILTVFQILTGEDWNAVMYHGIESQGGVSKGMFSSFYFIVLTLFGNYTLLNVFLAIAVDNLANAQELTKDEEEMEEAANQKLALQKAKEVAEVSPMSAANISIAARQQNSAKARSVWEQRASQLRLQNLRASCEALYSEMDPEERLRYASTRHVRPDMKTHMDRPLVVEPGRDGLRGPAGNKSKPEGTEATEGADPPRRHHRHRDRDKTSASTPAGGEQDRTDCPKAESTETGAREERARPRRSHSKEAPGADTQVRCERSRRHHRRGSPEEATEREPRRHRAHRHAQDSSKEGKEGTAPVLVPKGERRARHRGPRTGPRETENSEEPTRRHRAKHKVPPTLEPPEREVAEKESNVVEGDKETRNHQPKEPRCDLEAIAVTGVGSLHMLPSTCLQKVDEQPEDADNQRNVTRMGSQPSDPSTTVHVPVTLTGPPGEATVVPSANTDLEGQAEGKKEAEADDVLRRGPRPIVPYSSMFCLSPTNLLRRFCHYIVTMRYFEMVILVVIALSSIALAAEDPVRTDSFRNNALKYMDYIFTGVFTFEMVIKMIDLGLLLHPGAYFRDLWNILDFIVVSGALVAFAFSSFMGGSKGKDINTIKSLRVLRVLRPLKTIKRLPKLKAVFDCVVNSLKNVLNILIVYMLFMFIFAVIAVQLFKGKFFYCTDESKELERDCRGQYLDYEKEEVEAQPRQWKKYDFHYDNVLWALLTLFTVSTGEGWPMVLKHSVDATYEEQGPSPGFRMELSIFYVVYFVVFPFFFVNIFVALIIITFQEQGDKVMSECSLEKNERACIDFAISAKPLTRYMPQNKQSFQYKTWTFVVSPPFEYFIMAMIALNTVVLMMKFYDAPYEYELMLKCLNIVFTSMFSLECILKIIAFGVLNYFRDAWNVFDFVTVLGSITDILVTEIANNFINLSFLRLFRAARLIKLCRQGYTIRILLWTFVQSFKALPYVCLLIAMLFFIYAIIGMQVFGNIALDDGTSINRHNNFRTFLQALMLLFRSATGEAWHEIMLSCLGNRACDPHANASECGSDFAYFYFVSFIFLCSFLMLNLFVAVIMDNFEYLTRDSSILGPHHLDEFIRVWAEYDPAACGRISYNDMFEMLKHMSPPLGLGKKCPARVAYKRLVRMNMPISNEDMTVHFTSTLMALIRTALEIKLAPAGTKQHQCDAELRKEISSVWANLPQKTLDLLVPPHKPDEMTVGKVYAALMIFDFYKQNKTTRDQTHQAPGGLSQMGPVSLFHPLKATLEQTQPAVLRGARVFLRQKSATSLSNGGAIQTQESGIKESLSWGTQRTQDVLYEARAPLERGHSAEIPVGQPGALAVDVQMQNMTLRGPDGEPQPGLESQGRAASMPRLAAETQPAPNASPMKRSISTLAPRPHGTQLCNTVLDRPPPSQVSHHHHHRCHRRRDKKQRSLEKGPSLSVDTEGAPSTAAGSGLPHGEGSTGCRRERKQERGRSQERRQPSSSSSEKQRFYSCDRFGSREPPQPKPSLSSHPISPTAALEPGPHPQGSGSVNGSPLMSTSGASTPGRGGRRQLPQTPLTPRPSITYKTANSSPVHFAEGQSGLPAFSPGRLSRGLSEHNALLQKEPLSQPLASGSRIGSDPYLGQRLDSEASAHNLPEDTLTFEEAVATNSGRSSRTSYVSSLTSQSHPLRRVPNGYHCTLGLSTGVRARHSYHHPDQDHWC

YGRKKRRQRRRVSGLNPSLWSIFGLQFILLWLVSGSRHYLW (a2d1 peptide) [α2δ-1Tat peptide, 30-amino-acid peptide mimicking the C-terminal domain of α2δ-1 fused to the cell-penetrating peptide Tat]
interaction between α2δ-1 and Cav2.2 proteins in the spinal cord tissue (α2δ-1-Cav2.2 interaction): lack of an effect | interaction between α2δ-1 and Cav2.2 proteins in the spinal cord tissue (α2δ-1-Cav2.2 interaction; listed as α2δ-1 Tat peptide): had no effect | α2δ-1-Cav2.2 association in brain tissues subjected to OGD (α2δ-1-Cav2.2 association): had no effect
